Substitutions are numbered along the chain they refer to. Numbers in names are those of the source. Where two headings read alike, the source gives them in different places. Blank lines part the entries; values can stand above or below the binder they belong to.
What was measured:
[1] = biological target: T1, rabbit serum albumin (rabbit, UniProt P49065 25-608); experiment: SPR (Biacore 8K), albumin immobilized on CM5 chip, 25 C
T1 construct: Bought protein, immobilized on a CM5 chip by amine coupling; also called Rabbit SA
Description: (§1) The immobilization of the serum albumin to a Series S Sensor Chip CM5 surface is performed according to the manufacturer's instructions (Amine Coupling Kit BR-1000-50). Briefly, carboxyl groups on the sensor chip surfaces (flow cell 1 and 2) are activated by injecting 70 μL of a mixture containing 75 mg/mL EDC and 11.5 mg/mL NHS at 10 μL/min. Human, cynomolgus monkey, mouse, rat, pig, dog, cow and rabbit serum albumin are diluted in 10 mM sodium acetate pH 4.0 (BR-1003-49) at […] and then injected over the activated chip surfaces (flow cell 2, channel 1 to 8) at 10 μL/min for 180 sec (human, mouse, rat, pig and cow serum albumin are obtained from Sigma Aldrich (St. Louis, MO); cynomolgus monkey serum albumin is obtained from Hölzel Diagnostika (Cologne, Germany); dog serum albumin is obtained from Molecular Innovations (Novi, MI); and rabbit serum albumin is obtained from Fitzgerald Industries Intl. (Acton, MA). The various serum albumins are covalently immobilized through free amines onto a carboxymethyl dextran-coated sensor chip CM5 targeting a surface density of about 100 (62-145) RU. Excess reactive groups on the surfaces (flow cell 1 and 2) are deactivated by injecting 70 μL of 1 M ETA HCl—NaOH pH 8.5.
(§2) 150 μl of sample is individually injecting sequentially across the immobilized serum albumins on the chip's surface and dissociating for 600 sec at 50 μL/min flow rate at 25° C. The surface is regenerated by injecting 10 mM glycine-HCl pH 1.5 (BR-1003-54) at 50 μL/min for 100 sec. The resulting sensorgrams are analyzed using Biacore 8K Insight Evaluation Software (version 2.0.15.12933) 1:1 binding kinetics model fitting to calculate the binding kinetic parameter association rate (ka), dissociation rate (kd), and equilibrium dissociation constant (KD).

[2] = biological target: T2, cow serum albumin (cow, UniProt P02769 25-607); experiment: SPR (Biacore 8K), albumin immobilized on CM5 chip, 25 C, steady state
T2 construct: Bought protein, immobilized on a CM5 chip by amine coupling; also called Cow SA

[3] = biological target: T3, human serum albumin (human, UniProt P02768 25-609); experiment: SPR (Biacore 8K), albumin immobilized on CM5 chip, 25 C, 1:1 kinetic fit
T3 construct: Bought protein, immobilized on a CM5 chip by amine coupling; also called Human SA
Description: as §1, §2

[4] = biological target: T4, cynomolgus monkey serum albumin (cynomolgus monkey, UniProt A2V9Z4 25-608); experiment: as above
T4 construct: Bought protein, immobilized on a CM5 chip by amine coupling; also called Cyno SA
Description: as §1, §2

[5] = biological target: T5, mouse serum albumin (mouse, UniProt P07724 25-608); experiment: as above
T5 construct: Bought protein, immobilized on a CM5 chip by amine coupling; also called Mouse SA
Description: as §1, §2

[6] = biological target: T6, rat serum albumin (rat, UniProt P02770 25-608); experiment: as above
T6 construct: Bought protein, immobilized on a CM5 chip by amine coupling; also called Rat SA
Description: as §1, §2

[7] = biological target: T7, pig serum albumin (pig, UniProt P08835 25-607); experiment: as above
T7 construct: Bought protein, immobilized on a CM5 chip by amine coupling; also called Pig SA
Description: as §1, §2

[8] = biological target: T8, dog serum albumin (dog, UniProt P49822 25-608); experiment: as above
T8 construct: Bought protein, immobilized on a CM5 chip by amine coupling; also called Dog SA
Description: as §1, §2

[9] = biological target: T9, human RXFP1 receptor (human, UniProt Q9HBX9 1-757); experiment: cell-based or functional assay
T9 sequence: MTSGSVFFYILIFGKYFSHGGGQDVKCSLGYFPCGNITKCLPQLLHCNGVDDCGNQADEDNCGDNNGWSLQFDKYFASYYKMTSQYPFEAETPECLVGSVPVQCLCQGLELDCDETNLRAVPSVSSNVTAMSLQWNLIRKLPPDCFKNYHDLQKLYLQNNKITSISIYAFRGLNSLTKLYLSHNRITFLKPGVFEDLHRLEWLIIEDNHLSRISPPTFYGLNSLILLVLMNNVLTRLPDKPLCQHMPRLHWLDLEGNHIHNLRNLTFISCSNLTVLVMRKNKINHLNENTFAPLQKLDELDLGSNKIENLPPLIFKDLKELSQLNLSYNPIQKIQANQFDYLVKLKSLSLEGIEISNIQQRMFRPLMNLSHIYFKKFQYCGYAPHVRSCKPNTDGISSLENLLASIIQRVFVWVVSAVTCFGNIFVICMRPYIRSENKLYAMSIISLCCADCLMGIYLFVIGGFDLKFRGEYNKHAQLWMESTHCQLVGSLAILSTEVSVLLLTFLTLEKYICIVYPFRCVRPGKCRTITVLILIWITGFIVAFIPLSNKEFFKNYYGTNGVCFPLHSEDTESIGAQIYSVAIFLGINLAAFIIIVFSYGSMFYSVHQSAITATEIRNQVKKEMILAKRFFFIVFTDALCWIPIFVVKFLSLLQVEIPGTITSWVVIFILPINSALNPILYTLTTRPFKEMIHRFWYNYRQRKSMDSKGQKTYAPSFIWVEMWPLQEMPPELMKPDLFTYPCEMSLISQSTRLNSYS

[10] = biological target: human RXFP2 receptor (human, UniProt Q8WXD0 1-754); experiment: cell-based or functional assay
[11] = biological target: T2, cow serum albumin; experiment: SPR (Biacore 8K), albumin immobilized on CM5 chip, 25 C, steady state; remark: listed apart in the source
Description: as §1
150 μl of sample is individually injecting sequentially across the immobilized serum albumins on the chip's surface and dissociating for 600 sec at 50 μL/min flow rate at 25° C. The surface is regenerated by injecting 10 mM glycine-HCl pH 1.5 (BR-1003-54) at 50 μL/min for 100 sec. The resulting sensorgrams are analyzed using Biacore 8K Insight Evaluation Software ([…]).

Kd [2]: 29 nM
Kd [3]: 0.14 nM
koff [3]: 0.00019 s⁻¹
kon [3]: 1.4e+06 M⁻¹ s⁻¹
Kd [4]: 0.49 nM
koff [4]: 0.0007 s⁻¹
kon [4]: 1.4e+06 M⁻¹ s⁻¹
Kd [5]: 2.6 nM
koff [5]: 0.0048 s⁻¹
kon [5]: 1.8e+06 M⁻¹ s⁻¹
Kd [6]: 2 nM
koff [6]: 0.0033 s⁻¹
kon [6]: 1.7e+06 M⁻¹ s⁻¹
Kd [7]: 5 nM
koff [7]: 0.006 s⁻¹
kon [7]: 1.2e+06 M⁻¹ s⁻¹
Kd [8]: 0.92 nM
koff [8]: 0.0017 s⁻¹
kon [8]: 1.9e+06 M⁻¹ s⁻¹
B1: RLN Analog 13 (other)
chain: EVQLLESGGGLVQPGGSLRLSCAASGRYIDETAVAWFRQAPGKGREFVAGIGGGVDITYYADSVKGRFTISRDNSKNTLYLQMNSLRPEDTAVYYCAARPGRPLITSKVADLYPYWGQGTLVTVSSGGGGQGGGGQGGGGQGGGGQGGGGQALANKCCHVGCTKRSLARFCGGGSGGSGGGSWMEEVIKLCGRELVRAQIAICGMSTWS
notes: Single-chain fusion: VHH - (G4Q)5 L1 - RLN2 A chain (desA1-4) - L2 - RLN2 B chain (desB1)
binding result [1]: no binding (tested: 1000 nM (highest concentration tested))

hRXFP1 EC50 nM GeoMean (cAMP CRE luciferase reporter assay, CHO cells expressing human RXFP1) [9]: 15 nM
hRXFP2 EC50 nM GeoMean (cAMP CRE luciferase reporter assay, CHO cells expressing human RXFP2) [10]: 39 nM
Kd [11]: 130 nM
Kd [3]: 0.51 nM
koff [3]: 0.00024 s⁻¹
kon [3]: 470000 M⁻¹ s⁻¹
Kd [4]: 2.3 nM
koff [4]: 0.001 s⁻¹
kon [4]: 430000 M⁻¹ s⁻¹
Kd [5]: 12 nM
koff [5]: 0.0076 s⁻¹
kon [5]: 630000 M⁻¹ s⁻¹
Kd [6]: 9.7 nM
koff [6]: 0.0048 s⁻¹
kon [6]: 490000 M⁻¹ s⁻¹
Kd [7]: 24 nM
koff [7]: 0.0099 s⁻¹
kon [7]: 410000 M⁻¹ s⁻¹
Kd [8]: 4.1 nM
koff [8]: 0.002 s⁻¹
kon [8]: 480000 M⁻¹ s⁻¹
B2: RLN Analog 6 (other)
chain: SWMEEVIKLCGRELVRAQIAICGMSTWSGGGSGGSGGGQLYSALANKCCHVGCTKRSLARFCPGPQPGPQPGPQPGPQPGPQPGPQPGPQPGPQEVQLLESGGGLVQPGGSLRLSCAASGRYIDETAVAWFRQAPGKEREFVAGIGGGVDITYYADSVKGRFTISRDNSKNTLYLQMNSLRPEDTAVYYCAARPGRPLITSKVADLYPYWGQGTLVTVSSPP
notes: Single-chain fusion: RLN2 B chain (desB1) - L2 - RLN2 A chain - PGPQ-repeat L1 - VHH (C-terminal)
binding result [1]: no binding (tested: 1000 nM (highest concentration tested))

hRXFP1 EC50 nM GeoMean (cAMP CRE luciferase reporter assay, CHO cells expressing human RXFP1) [9]: 14 nM
hRXFP2 EC50 nM GeoMean (cAMP CRE luciferase reporter assay, CHO cells expressing human RXFP2) [10]: 32 nM
Kd [11]: 100 nM
Kd [3]: 0.37 nM
koff [3]: 0.0002 s⁻¹
kon [3]: 550000 M⁻¹ s⁻¹
Kd [4]: 1.5 nM
koff [4]: 0.00077 s⁻¹
kon [4]: 510000 M⁻¹ s⁻¹
Kd [5]: 9.7 nM
koff [5]: 0.0072 s⁻¹
kon [5]: 740000 M⁻¹ s⁻¹
Kd [6]: 7.8 nM
koff [6]: 0.0049 s⁻¹
kon [6]: 630000 M⁻¹ s⁻¹
Kd [7]: 20 nM
koff [7]: 0.0096 s⁻¹
kon [7]: 490000 M⁻¹ s⁻¹
Kd [8]: 3.4 nM
koff [8]: 0.0021 s⁻¹
kon [8]: 630000 M⁻¹ s⁻¹
B3: RLN Analog 10 (other)
chain: B2 chain with E138G
notes: Single-chain fusion: RLN2 B chain (desB1) - L2 - RLN2 A chain - (PGPQ)8 L1 - VHH (C-terminal)
binding result [1]: no binding (tested: 1000 nM (highest concentration tested))

Reference: patent publication US20260125446A1 (Eli Lilly, published 2026)
